Test results reported in article PMC7527728, “CPSF6-Dependent Targeting of Speckle-Associated Domains Distinguishes Primate from Nonprimate Lentiviral Integration” (mBio, 2020).
Read-outs that look alike come from different tables or passages of the source.

Assays:
[1] = tested on: HIV-1; details: HEK293T expressing CPSF6-358 vs vector, Luc virus, range of virus inocula (Fig. 5C)
Description: (§1) Vector control HEK293T cells were infected with GFP viruses at approximate MOIs of 0.4 to 0.5 alongside cells expressing CPSF6-358 (Fig. 5A).
(§2) HEK293T cells were cultured at 37°C in Dulbecco’s modified Eagle’s medium containing 10% (vol/vol) fetal bovine serum (FBS), 100 IU/ml penicillin, and 100 μg/ml streptomycin (DMEM) in humidified incubators in the presence of 5% CO2.
(§3) Single-cycle GFP and Luc reporter viruses were produced by cotransfection of HEK293T cells in 10-cm dishes with 15 μg total of various ratios of virus production plasmids using PolyJet DNA transfection reagent (SignaGen Laboratories). […] Concentrations of retroviral particles in mU/ml were determined using a TaqMan-based product-enhanced reverse transcriptase (Taq-PERT) real-time PCR assay ([80]).
(§4) Infections were conducted in duplicate in 24-well plates (10^5 cells/well). […] GFP reporter viral MOIs were determined as percentage of GFP-positive cells using a FACSCanto flow cytometer (BD Biosciences). […] Cell lysates were centrifuged at 17,500 × g for 8 min, and supernatants were analyzed in triplicate for luciferase activity. Relative light units (RLU), determined by luminometer (Berthold Technologies), were normalized to total protein concentration as measured by Pierce BCA protein assay kit (Thermo Fisher Scientific).

[2] = tested on: SIVmne; set-up: method as in PMID 20227665; details: cited from earlier work
[3] = tested on: BIV; assay: CPSF6-358 restriction assay, BIV; format: cell-based; details: HEK293T expressing CPSF6-358 vs vector control, GFP virus, MOI 0.4 to 0.5, 48 h (Fig. 5B)
Description: as §1, §2, §3, §4

[4] = tested on: primate lentiviruses; assay: CPSF6-358 restriction assay, primate lentiviruses; format: cell-based; details: HEK293T expressing CPSF6-358 vs vector control, GFP viruses, MOI 0.4 to 0.5, 48 h (Fig. 5B)
Description: as §1, §2
(§5) Infections were conducted in duplicate in 24-well plates (10^5 cells/well). After 6 to 8 h, medium was replaced with fresh DMEM or RPMI, and cells were harvested at 48 h from the start of the experiment. GFP reporter viral MOIs were determined as percentage of GFP-positive cells using a FACSCanto flow cytometer (BD Biosciences).

[5] = tested on: HIV-2; set-up: method as in PMID 20227665; details: cited from earlier work
[6] = tested on: HIV-1; details: cited from earlier work
[7] = tested on: MLV; assay: CPSF6-358 restriction assay, MLV; format: cell-based; details: HEK293T expressing CPSF6-358 vs vector control, GFP virus, MOI 0.4 to 0.5, 48 h (Fig. 5B)
Description: as §1, §2, §3, §4

[8] = tested on: EIAV; assay: CPSF6-358 restriction assay, EIAV; format: cell-based; details: HEK293T expressing CPSF6-358 vs vector control, GFP virus, MOI 0.4 to 0.5, 48 h (Fig. 5B)
Description: as §1, §2, §5

[9] = tested on: SIVmac; set-up: method as in 2 sources, ref 33 = [33]; PMID 20227665; doi:10.1016/j.chom.2010.02.007; 33. Lee K , Ambrose Z , Martin TD , Oztop I , Mulky A , Julias JG , Vandegraaff N , Baumann JG , Wang R , Yuen W , Takemura T , Shelton K , Taniuchi I , Li Y , Sodroski J , Littman D , Coffin J , Hugh ||| ref 35 = [35]; PMID 24130490; doi:10.1371/journal.ppat.1003693; 35. Matreyek KA , Yücel SS , Li X , Engelman A 2013 Nucleoporin NUP153 phenylalanine-glycine motifs engage a common binding pocket within the HIV-1 capsid protein to mediate lentiviral infectivity . P; details: cited from earlier work
[10] = tested on: SIVmac; assay: CPSF6-358 restriction assay, SIVmac; format: cell-based; details: HEK293T expressing CPSF6-358 vs vector, Luc virus, range of virus inocula (Fig. 5C)
Description: as §1, §2, §3, §4

[11] = tested on: FIV; assay: CPSF6-358 restriction assay, FIV; format: cell-based; details: HEK293T expressing CPSF6-358 vs vector control, GFP virus, MOI 0.4 to 0.5, 48 h (Fig. 5B)
Description: as §1, §2, §3, §4

B1: CPSF6-358 (protein, UniProt Q16630 1-358, looked up, fragment)
chain: MADGVDHIDIYADVGEEFNQEAEYGGHDQIDLYDDVISPSANNGDAPEDRDYMDTLPPTVGDDVGKGAAPNVVYTYTGKRIALYIGNLTWWTTDEDLTEAVHSLGVNDILEIKFFENRANGQSKGFALVGVGSEASSKKLMDLLPKRELHGQNPVVTPCNKQFLSQFEMQSRKTTQSGQMSGEGKAGPPGGSSRAAFPQGGRGRGRFPGAVPGGDRFPGPAGPGGPPPPFPAGQTPPRPPLGPPGPPGPPGPPPPGQVLPPPLAGPPNRGDRPPPPVLFPGQPFGQPPLGPLPPGPPPPVPGYGPPPGPPPPQQGPPPPPGPFPPRPPGPLGPPLTLAPPPHLPGPPPGAPPPAPHVN
Q: Which “restriction of infection, in words” value [1] does the source give for B1 here?
A: The value was “restriction of HIV-1 and SIVmac-Luc viruses was observed across a range of virus inocula”.

Q: And the “restriction of infection, in words” value [2]?
A: Its value is “restricted infection”.

Q: What about the “restriction of infection, in words” value [3] of the same molecule?
A: Its value is “infection by BIV was similarly unaffected”.

Q: What about the “restriction of infection, in words” value [4] of the same molecule?
A: The value was “potently restricted infection by primate lentiviruses”.

Q: And the “restriction of infection, in words” value [5]?
A: The value was “restricted infection”.

Q: And the “restriction of infection, in words” value [6]?
A: The value was “restricted infection”.

Q: What about the “restriction of infection, in words” value [7] of the same molecule?
A: Its value is “MLV-GFP similarly infected control and CPSF6-358-expressing cells”.

Q: What about the “restriction of infection, in words” value [8] of the same molecule?
A: The value was “failed to appreciably restrict EIAV infection”.

Q: And the “restriction of infection, in words” value [9]?
A: Its value is “restricted infection”.

Q: What about the “restriction of infection, in words” value [10] of the same molecule?
A: Its value is “restriction of HIV-1 and SIVmac-Luc viruses was observed across a range of virus inocula”.

Q: And the “restriction of infection, in words” value [11]?
A: The value was “did not significantly restrict FIV infection”.
